We go through three molecules from patent CN116789836A (ZHEJIANG SHIMAI PHARMACEUTICAL CO LTD, dated 2023).

Positions count from the first letter of the chain named.

Assay [1] has as its target T1, 人DLL3蛋白(His标签) (human, UniProt Q9NYJ7 27-479).
T1 construct: Bought protein (ACRO); also called 重组人DLL3; human DLL3 protein (His tag); not shown: His tag
T1 sequence (looked up): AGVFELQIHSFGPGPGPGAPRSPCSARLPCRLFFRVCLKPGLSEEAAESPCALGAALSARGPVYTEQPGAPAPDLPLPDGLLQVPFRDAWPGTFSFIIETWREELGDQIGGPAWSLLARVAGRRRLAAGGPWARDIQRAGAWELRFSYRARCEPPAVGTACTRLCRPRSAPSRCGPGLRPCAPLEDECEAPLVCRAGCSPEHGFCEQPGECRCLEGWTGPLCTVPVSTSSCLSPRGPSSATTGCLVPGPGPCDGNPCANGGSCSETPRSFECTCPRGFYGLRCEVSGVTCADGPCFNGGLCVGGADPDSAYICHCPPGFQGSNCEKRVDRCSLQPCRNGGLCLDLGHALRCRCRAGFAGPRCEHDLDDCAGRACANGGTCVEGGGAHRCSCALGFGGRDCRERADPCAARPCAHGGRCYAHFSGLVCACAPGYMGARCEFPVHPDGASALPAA
The assay is described as follows: ELISA, coated human DLL3 protein 100 ng per well, anti-Fc HRP detection.

For assay [2], the target named is T1, 人DLL3蛋白(His标签). The assay is described as follows: ELISA, coated human DLL3 protein. A general note: ELISA stands for enzyme-linked immunosorbent assay.
In assay [3] the target is T2, 效应细胞的CD3抗原 (CD3 on Jurkat-NFAT-CD3 cells and human T cells) (human).
T2 chain: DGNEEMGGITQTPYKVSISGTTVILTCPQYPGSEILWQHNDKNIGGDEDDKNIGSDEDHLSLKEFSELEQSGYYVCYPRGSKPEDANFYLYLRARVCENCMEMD
The assay is described as follows: cell-based or functional assay.

The target of assay [4] is T3, 细胞表面表达的DLL3 (H82 and LS174T-DLL3 cells) (human, UniProt Q9NYJ7 27-618).
T3 sequence (looked up): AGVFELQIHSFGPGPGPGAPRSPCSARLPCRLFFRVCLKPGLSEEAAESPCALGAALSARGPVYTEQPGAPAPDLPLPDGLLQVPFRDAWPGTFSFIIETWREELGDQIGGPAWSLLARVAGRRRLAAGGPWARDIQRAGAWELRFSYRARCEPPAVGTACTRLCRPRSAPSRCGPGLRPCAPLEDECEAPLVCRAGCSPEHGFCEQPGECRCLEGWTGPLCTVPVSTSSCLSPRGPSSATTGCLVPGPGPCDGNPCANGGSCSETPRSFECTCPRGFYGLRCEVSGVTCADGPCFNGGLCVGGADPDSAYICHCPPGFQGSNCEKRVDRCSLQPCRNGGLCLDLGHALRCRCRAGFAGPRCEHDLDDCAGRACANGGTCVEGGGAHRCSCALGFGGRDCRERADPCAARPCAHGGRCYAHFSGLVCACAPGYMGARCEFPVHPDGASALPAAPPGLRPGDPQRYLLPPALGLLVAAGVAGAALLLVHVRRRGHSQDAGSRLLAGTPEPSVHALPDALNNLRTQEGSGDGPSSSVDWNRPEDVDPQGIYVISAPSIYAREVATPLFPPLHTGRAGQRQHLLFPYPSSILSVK
The assay is described as follows: cell-based or functional assay.

Another assay has as its target T4, 人CD3蛋白 (human).
T4 chain: T2 chain
The assay is described as follows: ELISA, coated human CD3 protein.

B1: DLL3-1G2 mAb (antibody, human IgG1, kappa, V domains shown)
VH: QVQLQQPGAELVRPGASVKLSCKASGYSFTSYWMNWVKQRPGQGLEWIGMIHPSDSETRLNQKFKDKATLTVDKSSSTAYMQLSSPTSEDSAVYYCARWDYYDYAWFAYWGQGTLVTVSA
VL: DVLMTQTPLSLPVSLGDQASISCRSSQSIVHSNGDTYLEWYLQKPGQSPNLLIYKVSNRFSGVPDRFSGSGSGTDFTLKISRVEAEDLGVYHCFQGSHVPWTFGGGTKLEIKR
notes: Chimeric full IgG1: Fab of murine clone 1G2 fused to human IgG1 Fc; also called 抗DLL3单克隆抗体
For the molecule B1, in the assay with 人DLL3蛋白(His标签) [1], it took 0.0295 µg/mL to reach a half-maximal effect (EC50).

B2: DLL3-1G2H1L1-M6MV1-1 (bispecific antibody, human IgG1, kappa)
light: QVQLVQSGAELKKPGASVKLSCKASGYSFTSYWMNWVRQAPGQGLEWMGMIHPSDSETRLNQKFKDRVTLTVDKSSSTAYMELSSLTSEDTAVYYCARWDYYDYAWFAYWGQGTLVTVSSGGGGSGGGGSGGGGSDVVMTQTPLSLPVTLGQPASISCRSSQSIVHSNGDTYLEWYLQKPGQSPQLLIYKVSNRFSGVPDRFSGSGSGTDFTLKISRVEAEDVGVYYCFQGSHVPWTFGQGTKVEIKGSGGGGSGGGGSEIVVTQSPATLSVSPGERATLSCRSSTGAVTTSNYANWVQQKPGQAPRGLIGGANKRAPGVPARFSGSLSGDEATLTISSLQSEDFAVYYCALWYSNLWVFGQGTKLEIKRTVAAPSVFIFPPSDEQLKSGTASVVCLLNNFYPREAKVQWKVDNALQSGNSQESVTEQDSKDSTYSLSSTLTLSKADYEKHKVYACEVTHQGLSSPVTKSFNRGECGGSGSCPPCPAPEAAGAPSVFLFPPKPKDTLMISRTPEVTCVVVDVSHEDPEVKFNWYVDGVEVHNAKTKPREEQYNSTYRVVSVLTVLHQDWLNGKEYKCKVSNKALGAPIEKTISKAKGQPREPQVYTLPPSRDELTKNQVSLLCLVKGFYPSDIAVEWESNGQPENNYKTTPPVLDSDGSFFLHSKLTVDKSRWQQGNVFSCSVMHEALHNHYTQKSLSLSPG
heavy: EVQLVESGGGLVQPGGSLRLSCAASGFTFNTYAMNWVRQAPGKGLEWVARIRSKYNNYATYYADSVKGRFTISRDDSKNTLYLQMNSLRAEDTAVYYCARHGNFGSSYVSYFAYWGQGTTVTVSSASTKGPSVFPLAPSSKSTSGGTAALGCLVKDYFPEPVTVSWNSGALTSGVHTFPAVLQSSGLYSLSSVVTVPSSSLGTQTYICNVNHKPSNTKVDKKVEPKSCDKTHTCPPCPAPEAAGAPSVFLFPPKPKDTLMISRTPEVTCVVVDVSHEDPEVKFNWYVDGVEVHNAKTKPREEQYNSTYRVVSVLTVLHQDWLNGKEYKCKVSNKALGAPIEKTISKAKGQPREPQVYTLPPSRDELTKNQVSLLCLVKGFYPSDIAVEWESNGQPENNYKTTPPVLDSDGSFFLHSKLTVDKSRWQQGNVFSCSVMHEALHNHYTQKSLSLSPG
notes: also called DLL3×CD3 BiTE
Take B2: the EC50 in the assay with 人DLL3蛋白(His标签) [2] amounted to 0.378 µg/mL. In assay [3], the “CTL EC50 (T cell dependent cytotoxicity on LS174T-DLL3 cells, human T cells, CCK8)” value (“CTL EC50” for short) was found to be 305 ng/mL; the “T cell activation (Jurkat-NFAT-CD3 luciferase reporter) with H82 target cells, EC50” value (from here on “T cell activation … with H82 target cells, EC50”) is approximately 4020 ng/mL; the “T cell activation (Jurkat-NFAT-CD3 luciferase reporter) with LS174T-DLL3 target cells, EC50” value is approximately 5470 ng/mL. Also, in assay [4], the “CTL EC50” value was found to be 305 ng/mL; the “T cell activation … with H82 target cells, EC50” value was approximately 4020 ng/mL; the “T cell activation (Jurkat-NFAT-CD3 luciferase reporter) with LS174T-DLL3 target cells, EC50” value was approximately 5470 ng/mL. This molecule displayed a half-maximal effective concentration (EC50) with 人CD3蛋白 of 1.45 µg/mL.

B3: DLL3-1G2H2L1-M6MV1-1 (bispecific antibody, human IgG1, kappa)
light: B2 light with K13R, M48I, R67K, V68A, T91S
heavy: B2 heavy
notes: also called DLL3×CD3 BiTE
Take B3: the EC50 with 人DLL3蛋白(His标签) [2] was found to be 0.267 µg/mL. For the same molecule, in assay [3], the “CTL EC50” value worked out at 104 ng/mL; the “T cell activation … with H82 target cells, EC50” value was approximately 1970 ng/mL; the “T cell activation (Jurkat-NFAT-CD3 luciferase reporter) with LS174T-DLL3 target cells, EC50” value was approximately 2700 ng/mL. Moreover, in assay [4], the “CTL EC50” value came to 104 ng/mL; the “T cell activation … with H82 target cells, EC50” value is approximately 1970 ng/mL; the “T cell activation (Jurkat-NFAT-CD3 luciferase reporter) with LS174T-DLL3 target cells, EC50” value is approximately 2700 ng/mL. The EC50 in the assay with 人CD3蛋白 came out at 0.892 µg/mL.

In general, EC50 refers to the concentration needed to bring the measured effect to its halfway point. Low readings indicate greater potency, high ones weaker potency.
